In publication PMC6868016:
Values belong to the substance of their own block, whether it stands above or below them.

Tests used:
[1] = target: Halo7-GluA1 (GluA1 tagged with Halo7 at its N-terminus, pcDNA3.1B) (mouse); experiment: single-molecule fluorescence tracking (TIRF), colocalization durations, simultaneous two colours; living HEK293 cells, plasma membrane, ATTO594 on ACP tags and rhodamine110 on Halo7 tags, colocalization = within 240 nm; lifetimes corrected for photobleaching; 37 °C (ACP-TM with Halo7-TM at 22 °C)
Target sequence in this assay (P23818 19-907): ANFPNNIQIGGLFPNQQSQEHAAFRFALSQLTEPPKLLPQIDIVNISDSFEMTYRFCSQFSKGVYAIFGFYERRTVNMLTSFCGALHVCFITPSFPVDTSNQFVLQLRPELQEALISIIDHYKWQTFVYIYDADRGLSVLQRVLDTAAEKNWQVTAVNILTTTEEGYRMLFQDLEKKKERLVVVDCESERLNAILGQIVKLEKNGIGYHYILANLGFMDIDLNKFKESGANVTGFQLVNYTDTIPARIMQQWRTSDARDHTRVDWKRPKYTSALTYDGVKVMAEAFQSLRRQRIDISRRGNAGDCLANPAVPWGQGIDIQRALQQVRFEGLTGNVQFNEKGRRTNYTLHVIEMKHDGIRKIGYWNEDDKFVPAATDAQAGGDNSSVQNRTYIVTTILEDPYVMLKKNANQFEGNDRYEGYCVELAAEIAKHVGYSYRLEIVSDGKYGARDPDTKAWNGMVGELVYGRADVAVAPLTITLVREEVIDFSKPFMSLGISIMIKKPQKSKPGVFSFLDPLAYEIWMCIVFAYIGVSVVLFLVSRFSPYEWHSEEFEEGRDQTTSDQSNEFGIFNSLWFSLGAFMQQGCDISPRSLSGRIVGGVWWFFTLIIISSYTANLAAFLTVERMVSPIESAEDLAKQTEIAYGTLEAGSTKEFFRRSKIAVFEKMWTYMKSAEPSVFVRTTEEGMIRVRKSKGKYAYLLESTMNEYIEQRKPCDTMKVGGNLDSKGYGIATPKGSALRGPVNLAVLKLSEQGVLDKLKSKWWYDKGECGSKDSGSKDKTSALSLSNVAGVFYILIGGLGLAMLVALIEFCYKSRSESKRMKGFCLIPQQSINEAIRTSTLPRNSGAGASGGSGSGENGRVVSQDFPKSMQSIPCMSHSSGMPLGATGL

[2] = target: Halo7-GluA2 (GluA2 tagged with Halo7 at its N-terminus, pcDNA3.1B) (UniProt P23819); experiment: as above
Chain of Halo7-GluA2 (GluA2 tagged with Halo7 at its N-terminus, pcDNA3.1B) (P23819 25-883): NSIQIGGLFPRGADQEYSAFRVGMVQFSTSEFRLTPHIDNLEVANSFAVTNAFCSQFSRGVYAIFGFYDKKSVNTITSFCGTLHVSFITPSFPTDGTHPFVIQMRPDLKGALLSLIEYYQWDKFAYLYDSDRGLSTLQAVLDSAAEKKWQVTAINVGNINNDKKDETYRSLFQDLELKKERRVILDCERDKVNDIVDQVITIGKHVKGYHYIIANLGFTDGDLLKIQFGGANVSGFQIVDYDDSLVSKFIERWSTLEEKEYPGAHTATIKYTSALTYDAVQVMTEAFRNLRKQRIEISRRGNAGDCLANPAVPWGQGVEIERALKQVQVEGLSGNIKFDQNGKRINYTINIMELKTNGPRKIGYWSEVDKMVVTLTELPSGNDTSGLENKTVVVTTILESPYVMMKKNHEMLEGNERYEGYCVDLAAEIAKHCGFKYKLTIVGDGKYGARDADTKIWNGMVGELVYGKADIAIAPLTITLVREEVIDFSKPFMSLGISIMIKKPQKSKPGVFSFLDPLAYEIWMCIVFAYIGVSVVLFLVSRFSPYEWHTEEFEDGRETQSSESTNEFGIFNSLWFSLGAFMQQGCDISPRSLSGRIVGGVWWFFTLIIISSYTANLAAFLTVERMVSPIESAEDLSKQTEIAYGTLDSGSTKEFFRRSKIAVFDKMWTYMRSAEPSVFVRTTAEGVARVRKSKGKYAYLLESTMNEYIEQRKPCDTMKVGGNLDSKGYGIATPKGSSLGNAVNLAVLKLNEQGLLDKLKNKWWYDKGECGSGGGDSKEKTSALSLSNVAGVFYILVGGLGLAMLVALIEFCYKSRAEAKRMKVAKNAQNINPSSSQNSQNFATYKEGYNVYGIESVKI

[3] = target: ACP-GluA1 (GluA1 tagged with the acyl carrier protein at its N-terminus) (mouse); experiment: single-molecule fluorescence tracking (TIRF), colocalization durations, single colour; living HEK293 cells, plasma membrane, 33 ms per frame, colocalization = two spots within 240 nm; duration histograms fitted with a single exponential, lifetimes corrected for photobleaching; 37 °C (monomer references ACP-TM and Halo7-TM at 22 °C); GluA1 and GluA2 homodimers also with TARP2-mGFP overexpression (lifetimes not significantly altered)
[4] = target: ACP-GluA1ΔNTD (ACP-GluA1 with the N-terminal domain deleted) (mouse); experiment: as above
[5] = target: ACP-GluA1ΔNTD (ACP-GluA1 with the N-terminal domain deleted) (mouse); experiment: single-molecule fluorescence imaging (TIRF), distribution of spot signal intensities; living HEK293 cells, plasma membrane, various number densities of expressed molecules; intensity histograms of the initial ten frames fitted with the sum of four (references: two) lognormal functions for monomers, dimers, trimers, tetramers; incidental colocalizations not told apart from true assemblies; also with 0.1 mM AMPA or 10 mM L-glutamate (fractions not altered)
[6] = target: Halo7-GluA1 (GluA1 tagged with Halo7 at its N-terminus, pcDNA3.1B) (mouse); experiment: single-molecule fluorescence tracking (TIRF), colocalization durations, single colour; living HEK293 cells, plasma membrane, 33 ms per frame, colocalization = two spots within 240 nm; duration histograms fitted with a single exponential, lifetimes corrected for photobleaching; 37 °C (monomer references ACP-TM and Halo7-TM at 22 °C); GluA1 and GluA2 homodimers also with TARP2-mGFP overexpression (lifetimes not significantly altered)

Chain of ACP-GluA1ΔNTD (ACP-GluA1 with the N-terminal domain deleted) (domain or fragment) (P23818 378-907, stated change not applied): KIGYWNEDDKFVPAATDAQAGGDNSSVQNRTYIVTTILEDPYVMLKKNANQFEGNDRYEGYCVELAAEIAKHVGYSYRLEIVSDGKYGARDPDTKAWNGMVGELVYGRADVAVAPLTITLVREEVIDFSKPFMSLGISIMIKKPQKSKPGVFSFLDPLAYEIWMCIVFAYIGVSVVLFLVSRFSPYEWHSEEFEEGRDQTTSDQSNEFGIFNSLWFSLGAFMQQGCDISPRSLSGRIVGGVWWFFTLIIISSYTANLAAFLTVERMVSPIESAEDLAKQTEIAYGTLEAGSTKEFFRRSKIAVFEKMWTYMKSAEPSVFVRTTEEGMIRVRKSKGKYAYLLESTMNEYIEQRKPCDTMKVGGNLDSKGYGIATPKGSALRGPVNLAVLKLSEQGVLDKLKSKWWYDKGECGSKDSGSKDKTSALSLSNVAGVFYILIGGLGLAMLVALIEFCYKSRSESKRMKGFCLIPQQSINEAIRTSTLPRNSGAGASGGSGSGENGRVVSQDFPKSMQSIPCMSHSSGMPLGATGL
Chain of ACP-GluA1 (GluA1 tagged with the acyl carrier protein at its N-terminus) (receptor) (P23818 19-907): as the sequence (P23818 19-907) above
Chain of Halo7-GluA1 (GluA1 tagged with Halo7 at its N-terminus, pcDNA3.1B) (receptor) (P23818 19-907): as above

colocalization lifetime, homodimer [1]: 177 ms
colocalization lifetime, GluA1/A2 heterodimer (average of the two tag combinations) [2]: 334 ms
colocalization lifetime, GluA1/A2 heterotetramer (average of the two tag combinations) [2]: 208 ms
exponential lifetime, GluA1/A2 heterodimer [2]: 335 ms
colocalization lifetime, homodimer [3]: 164 ms
colocalization lifetime, homotetramer [3]: 98 ms
colocalization lifetime, homotrimer [3]: 117 ms
Substance: ACP-GluA1 (GluA1 tagged with the acyl carrier protein at its N-terminus) (receptor)

colocalization lifetime, homodimer [4]: 100 ms
colocalization lifetime, homotetramer [4]: 41 ms
Substance: ACP-GluA1ΔNTD (ACP-GluA1 with the N-terminal domain deleted) (domain or fragment)
tetramer fraction, fold smaller than that of full-length GluA1 (at 1–1.2 copies μm^−2) [5]: 3 to 4 fold

colocalization lifetime, homodimer [6]: 164 ms
Substance: Halo7-GluA1 (GluA1 tagged with Halo7 at its N-terminus, pcDNA3.1B) (receptor)
